These results are taken from PMC12393501, “Recruitment of Mre11 to recombination sites during meiosis” (Research Square, 2025).

First the molecules themselves.
B1: HisSUMO-tagged Mer2 [S. cerevisiae] / MBP-tagged Mre11-C49 peptide [S. cerevisiae] (parent)
chain 1: SYGLLNGRKTKTKTRPAASTKTASRRGKGRASRTPKTDILGSLLAKKRK
chain 2: MVARGRTDEISTDVSEANSEHSLMITETSSPFRSIFSHSGKVANAGALEESDKQILEWAGKLELESMELRENSDKLIKVLNENSKTLCKSLNKFNQLLEQDAATNGNVKTLIKDLASQIENQLDKVSTAMLSKGDEKKTKSDSSYRQVLVEEISRYNSKITRHVTNKQHETEKSMRCTQEMLFNVGSQLEDVHKVLLSLSKDMHSLQTRQTALEMAFREKADHAYDRPDVSLNGTTLLHDMDEAHDKQRKKSVPPPRMMVTRSMKRRRSSSPTLSTSQNHNSEDNDDASHRLKRAARTIIPWEELRPDTLESEL

The variants in the test derive from B1. The test can be described thus: co-expression Ni-NTA pulldown, anti-MBP immunoblot quantification. The settings on record: with MBP-tagged Mre11-C49 peptide [S. cerevisiae]; co-expressed in E. coli; at least seven independent samples; parent: 1; read off a plot. (In general: In western blotting, separated proteins are transferred to a membrane and probed.)
Regarding chain 2 MVARGRTDEISTDVSEANSEHSLMITETSSPFRSIFSHSGKVANAGALEASDKAILAWAGALELESMELRENSDKLIKVLNENSKTLCKSLNKFNQLLEQDAATNGNVKTLIKDLASQIENQLDKVSTAMLSKGDEKKTKSDSSYRQVLVEEISRYNSKITRHVTNKQHETEKSMRCTQEMLFNVGSQLEDVHKVLLSLSKDMHSLQTRQTALEMAFREKADHAYDRPDVSLNGTTLLHDMDEAHDKQRKKSVPPPRMMVTRSMKRRRSSSPTLSTSQNHNSEDNDDASHRLKRAARTIIPWEELRPDTLESEL [chain 2 E50A Q54A E57A K61A], the ratio to parent was determined as 0.27.
